The results in this text go back to PMC6776472 (Biochemistry, 2018).

Experiment [1] concerns the target ERK2 (UniProt P28482 1-360). As to the kind of experiment: fluorescence polarisation. A general note: In fluorescence polarisation assays a small probe gives low polarisation when free and higher when bound to something large.
For experiment [2], the target named is p38α (unphosphorylated, recombinant) (UniProt Q16539 1-360). As to the kind of experiment: fluorescence polarisation.
The target in experiment [3] is JNK1 (UniProt P45983 1-427). As to the kind of experiment: ITC.

No end group written: not given here.

ERK2, sequence (P28482 whole entry): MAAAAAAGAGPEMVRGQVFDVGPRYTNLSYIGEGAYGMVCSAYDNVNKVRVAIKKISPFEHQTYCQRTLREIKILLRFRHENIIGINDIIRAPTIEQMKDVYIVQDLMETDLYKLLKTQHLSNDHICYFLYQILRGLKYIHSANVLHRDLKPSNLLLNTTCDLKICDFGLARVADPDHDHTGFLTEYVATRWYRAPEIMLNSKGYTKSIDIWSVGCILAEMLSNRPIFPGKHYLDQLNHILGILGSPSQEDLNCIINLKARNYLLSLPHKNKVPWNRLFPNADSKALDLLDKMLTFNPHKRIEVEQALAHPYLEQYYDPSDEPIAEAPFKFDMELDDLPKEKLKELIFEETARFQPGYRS
JNK1, sequence (P45983 whole entry): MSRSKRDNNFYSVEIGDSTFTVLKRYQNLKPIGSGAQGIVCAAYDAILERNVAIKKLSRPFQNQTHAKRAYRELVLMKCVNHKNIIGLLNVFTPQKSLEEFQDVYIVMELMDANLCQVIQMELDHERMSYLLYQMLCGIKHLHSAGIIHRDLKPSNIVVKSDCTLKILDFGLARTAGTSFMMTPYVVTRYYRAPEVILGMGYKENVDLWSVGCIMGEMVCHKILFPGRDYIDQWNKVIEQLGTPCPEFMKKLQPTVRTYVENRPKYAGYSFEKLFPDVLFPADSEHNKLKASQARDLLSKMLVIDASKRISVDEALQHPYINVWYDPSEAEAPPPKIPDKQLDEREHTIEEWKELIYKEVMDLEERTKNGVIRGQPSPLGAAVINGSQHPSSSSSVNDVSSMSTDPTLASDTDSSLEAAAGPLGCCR
p38α (unphosphorylated, recombinant), sequence (Q16539 whole entry): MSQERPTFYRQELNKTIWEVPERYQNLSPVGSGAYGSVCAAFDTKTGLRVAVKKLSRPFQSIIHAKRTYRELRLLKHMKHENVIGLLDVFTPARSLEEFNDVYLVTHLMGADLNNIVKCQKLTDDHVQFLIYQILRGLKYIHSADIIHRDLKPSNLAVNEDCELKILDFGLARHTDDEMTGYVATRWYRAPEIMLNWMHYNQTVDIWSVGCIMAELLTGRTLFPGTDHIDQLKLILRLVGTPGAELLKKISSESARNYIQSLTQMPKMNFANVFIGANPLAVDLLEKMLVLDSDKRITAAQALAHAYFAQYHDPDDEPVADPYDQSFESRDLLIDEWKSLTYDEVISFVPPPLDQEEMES

For orientation: Kd means the free concentration of one partner at which half of the binding sites on the other are occupied at equilibrium, for simple one-to-one binding. Take {TAMRA}-GKKRNPGLKIPK [MKK6-derived 12-residue peptide, TAMRA-labeled]: the binding result in experiment [1] is reported as “binds”. Further, the dissociation constant (Kd) in experiment [2] turned out to be 3.9 µM.

B1: pepMKK6mb (designed binder)
chain: RDLEVVAATPTSLLISWDAPAVTVRYYRITYGETGGNSPVQEFTVPGSKSTATISGLKPGVDYTITVYAVTGRPGLKIPSKPISINYRTEI
In experiment [3], B1 had a Kd above 100 µM.
